Target: T1, PdhR (Escherichia coli K-12 W3110) (UniProt P0ACL9)
T1 sequence: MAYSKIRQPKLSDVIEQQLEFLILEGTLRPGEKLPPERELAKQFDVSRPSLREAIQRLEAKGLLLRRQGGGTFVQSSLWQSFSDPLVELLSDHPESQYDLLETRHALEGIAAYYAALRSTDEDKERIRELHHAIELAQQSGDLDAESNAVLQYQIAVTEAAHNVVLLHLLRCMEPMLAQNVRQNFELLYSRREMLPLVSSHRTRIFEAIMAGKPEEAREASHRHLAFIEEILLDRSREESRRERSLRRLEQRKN
Assay: EMSA
Details: Gel shift buffer (composition not given), 37 °C, 30 min; 0.2 pmol probe, 0-10 pmol PdhR; GelRed stain. gSELEX: 10 mM Tris-HCl pH 7.8 (4 °C), 3 mM Mg acetate …

“CTCTATATCACTCTCACAAATTCGCTCAAATAATAAACAATAAACTCTGTTTTTTGATCTCACCCGGTAAAGTCGCCTATCTTTTCAGCAACAAAACTTGATTAACATCAATTTTGGTATGACCAATGCACCATTCATGTTATTCTCAATAGCGAAGAACATTTTCATTGCTGTAACCTGTTGTTAATTAAGAGCTATGTTAATAACCATTAATTAACAATTGGTTAATAAATTTAAGGGGGTCACG (double strand) [ndh probe]” was tested, and the binding was “binds”.

— paper PMC7660256
